From patent publication US20210188980A1 (SHANGHAI EPIMAB BIOTHERAPEUTICS, published 2021)

B1: HumAb713-9 (antibody, human IgG1, kappa, L234A L235A, V domains shown)
VH: EVQLVESGGGLVQPGGSLRLSCAASGFTFSDYGMHWVRQAPGKGLEWVSYISSGSYTIYYADTVKGRFTISRDNAKNSLYLQMNSLRDEDTAVYYCARRGGSSHVNVMDYWGQGTTVTVSS
VL: DIQMTQSPSSLSASVGDRVTITCKASDHINNWLAWYQQKPGKAPKLLISGATSLETGVPSRFSGSGSGTDYTFTISSLQPEDIATYYCQQYWSPPYTFGGGTKVEIKR
notes: humanized mAb713
B2: HumAb713-12 (antibody, human IgG1, kappa, L234A L235A, V domains shown)
VH: EVQLVESGGGLVQPGGSLRLSCAASGFTSSDYGMHWVRQAPGKGLEWVAYISSGSYTIYYADTVKGRFTISRDNAKNSLYLQMNSLRDEDTAVYYCAKRGGSSHVNVMDYWGQGTTVTVSS
VL: DIQMTQSPSSLSASVGDRVTITCKASDHINNWLAWYQQKPGKAPKLLISGATSLETGVPSRFSGSGSGTDYTFTISSLQPEDIATYYCQQYWSPPYTFGGGTKVEIKR
notes: humanized mAb713
B3: HumAb713-10 (antibody, human IgG1, kappa, L234A L235A, V domains shown)
VH: EVQLVESGGGLVQPGGSLRLSCAASGFTFSDYGMHWVRQAPGKGLEWVSYISSGSYTIYYADTVKGRFTISRDNAKNSLYLQMNSLRDEDTAVYYCAKRGGSSHVNVMDYWGQGTTVTVSS
VL: DIQMTQSPSSLSASVGDRVTITCKASDHINNWLAWYQQKPGKAPKLLISGATSLETGVPSRFSGSGSGTDYTFTISSLQPEDIATYYCQQYWSPPYTFGGGTKVEIKR
notes: humanized mAb713
B4: HumAb713-14 (antibody, human IgG1, kappa, L234A L235A, V domains shown)
VH: EVQLVESGGGLVQPGGSLRLSCAASGFTFSDYGMHWVRQAPGKGLEWVSYISSGSYTIYYADTVKGRFTISRDNAKNSLYLQMNSLRDEDTAVYYCAKRGGSSHVNVMDYWGQGTTVTVSS
VL: DIQMTQSPSSLSASVGDRVTITCKASDHINNWLAWYQQKPGKAPKLLISGATSLETGVPSRFSGSGSGKDYTFTISSLQPEDIATYYCQQYWSPPYTFGGGTKVEIKR
notes: humanized mAb713
B5: HumAb713-16 (antibody, human IgG1, kappa, L234A L235A, V domains shown)
VH: EVQLVESGGGLVQPGGSLRLSCAASGFTSSDYGMHWVRQAPGKGLEWVAYISSGSYTIYYADTVKGRFTISRDNAKNSLYLQMNSLRDEDTAVYYCAKRGGSSHVNVMDYWGQGTTVTVSS
VL: DIQMTQSPSSLSASVGDRVTITCKASDHINNWLAWYQQKPGKAPKLLISGATSLETGVPSRFSGSGSGKDYTFTISSLQPEDIATYYCQQYWSPPYTFGGGTKVEIKR
notes: humanized mAb713
B6: HumAb713-15 (antibody, human IgG1, kappa, L234A L235A, V domains shown)
VH: EVQLVESGGGLVQPGGSLRLSCAASGFTSSDYGMHWVRQAPGKGLEWVSYISSGSYTIYYADTVKGRFTISRDNAKNSLYLQMNSLRDEDTAVYYCAKRGGSSHVNVMDYWGQGTTVTVSS
VL: DIQMTQSPSSLSASVGDRVTITCKASDHINNWLAWYQQKPGKAPKLLISGATSLETGVPSRFSGSGSGKDYTFTISSLQPEDIATYYCQQYWSPPYTFGGGTKVEIKR
notes: humanized mAb713
B7: HumAb713-13 (antibody, human IgG1, kappa, L234A L235A, V domains shown)
VH: EVQLVESGGGLVQPGGSLRLSCAASGFTFSDYGMHWVRQAPGKGLEWVSYISSGSYTIYYADTVKGRFTISRDNAKNSLYLQMNSLRDEDTAVYYCARRGGSSHVNVMDYWGQGTTVTVSS
VL: DIQMTQSPSSLSASVGDRVTITCKASDHINNWLAWYQQKPGKAPKLLISGATSLETGVPSRFSGSGSGKDYTFTISSLQPEDIATYYCQQYWSPPYTFGGGTKVEIKR
notes: humanized mAb713

Experiments:
[1] = target: T1, human PD-1 expressed on cells (human, UniProt Q15116 25-288); assay: cell RBA FACS; competitor PD-L1/Fc
T1 construct: whole, on cells; also called CHO-K1/huPD-1; CHO-K1-hPD-1 cells
T1 sequence (Q15116 25-288): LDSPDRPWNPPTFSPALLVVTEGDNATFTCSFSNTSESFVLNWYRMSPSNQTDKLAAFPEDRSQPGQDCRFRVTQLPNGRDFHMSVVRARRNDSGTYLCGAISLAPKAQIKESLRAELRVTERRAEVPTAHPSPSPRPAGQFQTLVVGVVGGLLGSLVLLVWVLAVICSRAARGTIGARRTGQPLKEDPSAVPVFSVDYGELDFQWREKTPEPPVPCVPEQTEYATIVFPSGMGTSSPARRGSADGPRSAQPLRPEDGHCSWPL

[2] = target: T1, human PD-1 expressed on cells; assay: cell RBA FACS; competitor PD-L2/Fc

| Binder | IC50 [1] [nM] | IC50 [2] [nM] |
| --- | --- | --- |
| B1 | 1.2 | 2 |
| B2 | 0.94 | 1.59 |
| B3 | 0.8 | 1.23 |
| B4 | 0.91 | 1.45 |
| B5 | 0.65 | 1.63 |
| B6 | 0.88 | 1.65 |
| B7 | 0.7 | 2.13 |
